Results from the nanobody polyreactivity screen of Harvey et al. (2022).

experiment: yeast display, Sf9 membrane polyspecificity reagent, FACS + sequencing; frameworks hold sequencing errors
Procedure, shortened: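 A synthetic nanobody library was expressed on Saccharomyces cerevisiae BJ5465 by galactose induction for 36–48 hours. The library was stained for 1 hour at 4 °C with 10% biotinylated, detergent-solubilized Sf9 membrane reagent and enriched with streptavidin microbeads before FACS. Low and high (top ~1%) gates were set on anti-HA fluorescence for expression and streptavidin fluorescence for reagent binding, and each polyreactivity label reflects the gate of origin.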

Row | Sequence | polyreactivity (PSR sort gate)
1 | QVQLVESGGGLVQAGGSLRLSCAASGFTFYKNTMGWYRQAPGKERELVAAISGSGGRTYYADSVKGRFTISRDNAKNTVYLQMNSLKPEDTAVYYCNAAARYRWQYDYSLYEYGHWGQGTQVTVSS | high polyreactivity
2 | QVQLVESGGGLVQAGGSLRLSCAASGRLFIIYAMGWYRQAPGKERELVAAINRGATTNYADSVKGRFTISRDNAKYTVYLQMNSLKPEDTAVYYCAARGVAKLRRVGYWGQGTQVTVSS | high polyreactivity
3 | QVQLVESGGGLVQAGGSLRLSCAASGIIFPTYDMGWYRQAPGKERELVAAITWSTGSTTYADSVKGRFTISRDNAKNTVYLQMNSQKPEDTAVYYCNKDSEGSGGEFDYWGQGTQVTVSS | low polyreactivity
4 | QVQLVESGGGLVQAGGSLRLSCAASGSTLLGNTMGWYRQAPGKERELVAAISWSGGSTYYADSVKGRFTISRDNAKNTVYLQMNSLKPEDTAVYYCNALGRENKGSYGYDYWGQGTQVTVSS | low polyreactivity
5 | QVQLVETGGGLVQAGGSLRLSCAASGFIFAYNAMGWYRQAPGKERELVAAISWSGGSTYYADSVKGRFTISRDNAKITVYLQMNCLKPEDTAVYYCNAVSYFGARYDYWGQGTQVTVSS | high polyreactivity
6 | QVQLVESGGGLVQAGGSLRLSCAASGNTFKGYAMGWYRQAPGKERELVAAISWSGSSTYYADSVKGRFTISRDNAKNTVYVQMISLKPEDTAVYYCNRKYLGRYASVYGYGYWGQGTQVTVSS | high polyreactivity
7 | QVQLVESGGGLVQAGGSLRISCAASGSTFFKNAMGWYRQAPGKERELVAAITWSGDRTYADSVKGRFTISRDNAKNTVYLQMNSLKPEDTAVYYCNVDITGYDDDYWGQGPQVTVSS | low polyreactivity
8 | QVQLVESGGGLVQAGGSLRLSCAASGLIFRPYTMGWYRPAPGKERELVATISGSGASTNYADSVKGRFTISRDNAKNTVYLQMNSLKPEDTAVYYCKGRSYSRMYYWGQGTQVTVSS | high polyreactivity
9 | QDQLVESGGGLVQAGRSLRLSCAASGSIFTVYAMGWYRQAPGKEWELVASISTGGSTNYADSVKGRFTISRDNAKNTVYLPMISLKPEDTAVYYCAATGWAYGYGYGYWGQGTQVTVSS | low polyreactivity
10 | QVQLVESGGGLVQAGGSLSLSCAASGRTFKRYAMGWYRQAPGKERELVAAITSSGTSTYADSVKGRFTISRDNAKNTVYFQMNSLKPEDTAVYYCNRGYFNSRTPTFDYWGQGTQVTVSS | low polyreactivity
11 | QVQLVESGGGIVQAGGSLSLSCAASGSTFSIYAMGWSRQATGTEREVVAAISGSGSRTYYADSVKGRFTISRDNEKNSVYLQMNMLKPEDTAVYYCAALGRHRDGFDFNYWGQGTQVTLSS | high polyreactivity
12 | QVQLVESGGGLVQAGGSLRLSCAASGFTFPKYAMGWYRQAPGKERELVAAITWSGGSTRYADSVKGRFTISRDNAKNTVYLQMNSLKPEDTAVYYCAADRRSGYSRYKYGRGDYWGQGTQVTVSS | high polyreactivity
13 | QVQLVESGGGLVQAGGSLRLSCAASGNTFTWYTIGWYRQAPGKERELVAVSTSDGSTYYADSVKGRFTISRDNAKHTVYLQMNSLKPEDTAVYYCTAGGGTNYGSGYWYGYYYWGQGTQVTVSS | low polyreactivity
14 | QVQLVESGGGLVQAGGSLLLSCAASGYTFKSYVMGWYRQAPGKERELVAAITSIGGSTYYADSVKGRFTISRDNAKNNVYLQMNSLKPEDTALYYCAKYPGISGYNYWGQGTQVTVSS | high polyreactivity
15 | QVQLVESGGGLVQAGGSLRLSCAASGSTFGYYTMGWYRQSPGKERELVAAITWRGGRTYYADSVKGRFTISRDNEKNTVYLQMNSLKPEDTAVYYCAARSTVVMDYWGQGTKVTVSS | high polyreactivity
16 | QVQLVESGGGLVQAGGRLRLSCAASGSIFCVNAMGWSRQAPGKERELVATITGSSGITYYADSVKGRFTISRVNAKNTVYLQMNSVKPEDTAVYYCAAVLLKFAYNYNYWGQGTQVTVSS | low polyreactivity
17 | QVQLVESGGGLVQAGGSLRLSCAASGRIFGINALGWYRQAPGKERELVAAISSADSTYADSVKGRFTISRDNAKNTVFLQMYSLNPEDTAVYNCRNDYWGQGTQVTVSS | low polyreactivity
18 | QVQLVESGGGLVQAGCSLRLSCAATGRSFRRNTMGWYRQAPGKERELVAAISSSGSSTYYADSVKGRFTISRDNAKNTVFLQMNSLKPEDTAVYYCAARGRGQPFVRYDYWGQGTQVTVSS | high polyreactivity
19 | QVQHVESGGGLVQAGGSLRLSCAASGFTIYYYAMGWYRQAPGKERELVAAISTRDGNTYYADSVKGRFTMSRDNAKNTVYLQMNSLKPEDTAVDYCAADYFRYYPYDYWGQGTQVTVSS | low polyreactivity
20 | QVQLVESGGGLVQAGGSLRLICAASGYIFDYYAMGWYRQAPGKERELVAAISWSGGSTYYADSVKGRFTISRDNEKNTVSLQMNSLKPEDTAVYYCAAEGTYYGSDYWGQGTQVTVSS | high polyreactivity
21 | QVQLVESGGGLVQAGGSLRLSCAASGLIFSSNAMGWYRQAPGKERELVATISWSGGSTYYADSVKGRFTISRDNAKNTVYLQMNSLKPEDTAVYYCCWSALNGYDYWGQGTQVTVSS | high polyreactivity

Row | Sequence | polyreactivity (PSR sort gate)
22 | QVQLVESGGGLVQAGGSLRLSCAGSGSTFQRYGMGWYRQAPGKEREFVAAISTSGGITYYADSVKGRFTISRDNAKNTVYLQMNSLKPEDTAVYYCAARTARHVRYWAGWRDYWGQGTQVTVSS | high polyreactivity
23 | QVQLVESGGGLVQAGGSLRLSCAASGIIFAGNAMGWYRQAPGKERELLAVITSGGSTYYADSVKGRFTISRDNAKNTVFLQINSLIPEDTAVYYCNKVYYAYRVSLYSYGYWGQGTQVTVSS | high polyreactivity
24 | QVQLQESGGGLVQASGSIFHEPTMGWYRQAPGKERELVAGISSGANTYYADSGKGRCTISRDNAKNTVYLQMNSLKPEDTAVYYCNARRRYSLTMDYWGHGTQVTVSS | high polyreactivity
25 | QVQLVESGGGLVQAGGSLRLSCAACGSIFPGYAMGWYRQAPGKERELVATIRWSSGSRTNYADSVKGRFTISRDNAKNTVYLQMNSLKPEDTAVYYCAAGSRRYKYDYWGQGTQVTVSS | high polyreactivity
26 | QVQLVESGGGLLQAGGSLRLSCAASGSTFEYNAMGWYRQAPGKERELVASSTNYADSVKGRFTISRDNAKNTVYLQMNSLKPEDTAVYYCAREQGVNRNHDNWGQGTQVTVSS | low polyreactivity
27 | QVQLVESGGGLVQAGGSLRLSCAASGIIFAGNAMGWYRQAPGKERELVAVITSGGSTYYADSVKGRFTISRDNAKNTVYLQMNSLKPEDTAVYYCNKVYYAYRVSLYRYGYWGQGTQVTVSS | high polyreactivity
28 | QVQLVESGGGLVQAGGSLRLSCAASGFIFYKNAMGWYRQAPGKERELVAAITQRGGRTYYADSVKGRFTISRDNSKNTVYLQMNSLKPEDTAVYYCAAKALYGKQAWRYNYWGQGTQVTVSS | high polyreactivity
29 | QVQLVESGGGLVQAGGSLRLSCAASGRTFDVYTMGWYRQAPGKERELVAAINGGGSTYYADSVKGRFTISRDNAKNTVYSQMNSLKPEDTAVYYCAAKFRAGRSSYYWGQGTQVTVSS | high polyreactivity
30 | QVQLVESGAGLVQAGGSLRLSCAASGRIFYKYVMGWYRQAPGKERELVATITSGGSTYYADSVKGRFTISRDNAKNTVYLQMNSLKPEDTAVYYCATKQSRTRYDRYGYWGQGTQVNVSS | high polyreactivity
31 | QVQLVESGGGLVQAGGSHRLSCAASGYTFPLYAMGWYRQAPGKERELVADINIGGASTYYADSVKGRFTISRDNAKNTVYLQMNSLKPEDTAVYYCAKEYYDGYFPTFDYDYWGQGTQVTVSS | low polyreactivity
32 | QVQLVESGGGLVQAGGSLRLSCAASGSIYGPYAMGWYRQAPGKERELVAAIAESSGSTYYADSVKGRFTISRDNAKNTVYLQMNRMKPEDTAVYYCAAEQITGWSWVWGSWYDYWGQGTQVTVSS | low polyreactivity
33 | QVQLVESGGGLVQAGGSLRLSCAASGSIFAVYAMGWYRQAPGKERELVAAISSRGSSTYYADSVKGRFTISRDNAKNTVYLQMNSLIPEDTEVYYCAARPGIRSYPPGYGYWGQGTQVTVSS | low polyreactivity
34 | QVQLVESGGGLVQAGGSLRLSCAASGSTFYLYAMGWYRQAPGKERELVAAISWSDDTTYYADSVKGRFTISRDNAKNTVYLQMNSLKPEDTAVYYCATVPHYYYDYDYWGQGTQVTVSS | low polyreactivity
35 | QVQLVESGGGLVQAGGSLRLSCAASGYFDRNAMGWDRQAPGKERELVAAITVGGSTNYADSVKGRFTISRDNAKNSVYVQMNSLKPEDTAVYYCAADRGHTILHGGYWGQGTQVTVSS | low polyreactivity
36 | QVQLVESGGGLVQAGGSLRLSCAASGLIFSNNAMGWYRQAPGKERELVAAITSSGSRTYYADSVKGRFTISRDNAKNTVYLEMNRLKPEDTAVYYCAAYEVPYQRRYGYWGQGTQVTVSS | high polyreactivity
37 | QVQLVESGGGLVQAGGSLRLSCAASGSTFVDYAMGWYRQAPGKERELVAAISSSGSTNYADSVKGRFTISRDNAKNTVYLQMNSLKPEDTAVYYCNADGNPDFYYSFYDEYDYWGQGTQVTVSS | low polyreactivity
38 | QDQHVESGGGLVQAGGSLRLSCAASGSTLYRYAMGWYRQAPGKERELVAAISSAGSTHYADSVKGRFTISRDNAKNTVYLQKNSLKPEDTAVYYCAKVVKKIEFDYWGQGTQVTVSS | high polyreactivity
39 | QVQLVESGGGLVQAGGSLRLSCAASGFIFYKNAMGWYRQAPGKERELVAAINFSTGRTYYADSVKGRFTISRDNAKNTVYLQMNSLKPEDTAVYDCATKSANPRKYYYWGQVTQVTVSS | high polyreactivity
40 | QVQLVESGGGLVQAGGSLRLSCAASGSIFGPYAMGWYRQAPGKERELVATITTNGGSTYYADSVKGRFTISRDNAKNTVYLQMNSLKPEDTAVYYCATQHTDYVGAATTYNYWGQGTQVTVSS | low polyreactivity
41 | QVQLVESGGGLVQAGGSLRLSCAASGLIFRPYAMGWSRQAPGKERELVAAITSGGSTDYADSVKGRFTISRDNAKNTVYLQMNSLKPEDTAVYYCNADIYPHDGYPWQGDYDYWGQGTQVTVSS | low polyreactivity
